Assay results taken from US10813984B2, “Aspartate-β-hydroxylase induces epitope-specific T cell responses in tumors” (Rhode Island Hospital, priority 2014, dated 2020).

Experiments:
Treg cells = conditions: low doses; cited from earlier work
[1] = system: tumor-bearing mouse model; conditions: cited from earlier work
[2] = system: established orthotropic HCC; conditions: mice bearing established orthotropic HCC; cited from earlier work
PBMCs = assay: IFN-γ ELISpot after 2 weeks PBMC culture with single ASPH peptide; type: cell-based, human; conditions: 5 healthy blood donors HD #1-5
Protocol: (§1) Epitope-specific T cells were induced according to known methods.^21 Briefly, 2.5×10^5 PBMCs/200 μl X-VIVO 15 medium supplemented with 1 mM L-glutamine, 100 U/ml penicillin, 100 μg/ml streptomycin, and 50 U/ml recombinant human IL-2 (R&D Systems) in round-bottom 96-well plates were cultured for 2 weeks with 10 μg/ml individual peptide. When mature DCs were used as antigen-presenting cells, the T cells were isolated from PBMCs by negative selection using the Pan T Cell Isolation Kit II (Miltenyi Biotec). Regulatory T(reg) cells were removed by the addition of anti-CD25 microbeads (Miltenyi Biotec) where indicated. Treg cell-depleted or non-depleted T lymphocytes (2.4×10^6) were co-cultured for 8 days with 4×10^4 mature DCs loaded with relevant antigen in 24-well plates.^11
Human IFN-γ enzyme-linked immunospot (ELISpot) assays were performed as we described previously using a kit purchased from eBioscience (San Diego, Calif.) to determine T cell immune-reactivity.^21 Cells (5×10^4/well) were added to ELISpot plates (Millipore, Bedford, Mass.) pre-coated with anti-IFN-γ capture antibody and incubated with peptides (10 μg/ml) for 20 hours. […] The plates were developed by adding substrate, 3-amino-9-ethyl carbazole, and the number of spots/well was quantified using a CTL-immunospot S5 UV Analyzer (Cellular Technology Limited, Shaker Heights, Ohio).

PBMCs (CD4+ T cells) = assay: Flow cytometric analysis of peptide-cultured PBMCs (IFN-γ+CD4+, CD154); type: cell-based, human; conditions: PBMCs of HD #1
Protocol: FIG. 3A is a histogram, FIGS. 3B and C are bar graphs, and FIG. 3D is a line graph. Characterization of ASPH peptide-specific T cell responses. PBMCs obtained from patient HD #1 were cultured with the ASPH peptides indicated. After 2 weeks incubation, the cells were collected and re-cultured with the corresponding peptides for 20 hours, followed by analyses. p52-reactive PBMCs were stained and the percentage of IFN-γ^+CD4^+ T cells was determined by flow cytometric analysis (FIG. 3A). The percentage of CD154-expressing CD4^+ T cells assessed by flow cytometric analysis was determined as a measure of the response of cells to the ASPH peptide listed in accordance with Table I (FIG. 3B). […] PBMCs cultured 2 weeks with the peptides listed were not treated or pretreated with anti-HLA-A,B,C or anti-HLA-DR for 1 hour; the same corresponding peptide (10 μg/ml) was then added and IFN-γ in the culture supernates collected after 5 days was quantified by ELISA (FIG. 3C). […] PBMCs, cultured 2 weeks with the ASPH peptides listed, were collected and reincubated with increasing concentrations of the same peptide. IFN-γ in the culture supernates collected after 5 days was quantified by standard ELISA. […]

[3] = system: pan T cells purified from PBMCs (CD4+ T cells, CD8+ CTLs); assay: T cell activation by co-culture with antigen-loaded monocyte-derived DCs, flow cytometric analysis; type: cell-based, human
Protocol: DCs were generated using known methods.^11,20 Monocytes were isolated from PBMCs using anti-CD14 microbeads (Miltenyi Biotec, Auburn, Calif.) and cultured for 5 days in X-VIVO 15 medium (Lonza, Walkerville, Md.) supplemented with human GM-CSF (R&D Systems, Minneapolis, Minn.) and IL-4 (R&D Systems). ASPH (1 μg/ml) was added on day 5. On the next day, TNF-α (R&D Systems) was added to stimulate DC maturation and the cells were incubated for another 48 hours. DCs incubated with α-fetoprotein (AFP; Zynaxis Cell Science, Malvern, Pa.) or alone served as the control. Mature, epitope-expressing DCs were collected at the end of the incubation period and used in the experiments described.
as §1
Flow cytometric analysis was conducted.^11 Intracellular cytokine staining was performed to evaluate T cell activation. Conjugated mouse monoclonal antibodies specific for the following determinants were used: CD4 (clone OKT4; BioLegend, San Diego, Calif.), CD8a (clone RPA-T8; BioLegend), CD137 (clone 4B4-1; BD Biosciences, San Diego, Calif.), CD154 (clone TRAP1; BD Biosciences), and IFN-γ (clone B27; BD Biosciences). Appropriate isotype controls were included in each analysis.
Experiments were undertaken to determine the capacity of ASPH to activate CD8^+ CTLs, as well as helper CD4^+ T cells, contained in the PBMC populations derived from HCC patients. The experimental procedure for evaluating ASPH-specific T cell activation was optimized using PBMCs derived from a healthy donor.^11 Pan T cells were co-cultured with autologous, ASPH-pulsed DCs; T cells co-incubated with AFP-pulsed or non-pulsed DCs served as controls. After 8 days culture, the T cells were collected and re-incubated with freshly prepared DCs pre-loaded with the same antigen; antigen-specific T cell activation was evaluated by flow cytometric analysis. […] Moreover, they support the premise that immunization with ASPH activates protein-specific CD4^+ and CD8^+ T cells in HCC patients.

[4] = HCC patients #1-5, ASPH-pulsed vs AFP-pulsed or non-pulsed DCs

O=P1(N(CCCl)CCCl)NCCCO1 (centres unmarked) [cyclophosphamide]
number and inhibitory activity of Treg cells (Treg cells): decrease the number and inhibitory activity of Treg cells | Treg cell function, immune response and tumor eradication [1]: suppressed Treg cell function and augmented the immune response and tumor eradication

CNC(=O)c1cc(Oc2ccc(NC(=O)Nc3ccc(Cl)c(C(F)(F)F)c3)cc2)ccn1 [sorafenib]
Treg cell function and anti-tumor immunity [2]: reduced Treg cell function and enhanced anti-tumor immunity

QKAKVKKKKPKLLNKF (p322) [ASPH AA 322-337, HLA-DRB1-restricted]
healthy blood donors for whom the peptide was immunogenic (PBMCs): 5 donors

TSFFTWFMVIALLGVWTSVA (p52) [ASPH AA 52-71, HLA-DRB1-restricted]
peptide-reactive IFN-γ-producing cells that expressed CD4 (PBMCs (CD4+ T cells)): essentially all

B1: ASPH: Full-length human ASPH recombinant protein produced in a Baculovirus system, loaded on monocyte-derived DCs (protein, listed as Homo sapiens)
chain: MAQRKNAKSSGNSSSSGSGSGSTSAGSSSPGARRETKHGGHKNGRKGGLSGTSFFTWFMVIALLGVWTSVAVVWFDLVDYEEVLGKLGIYDADGDGDFDVDDAKVLLGLKERSTSEPAVPPEEAEPHTEPEEQVPVEAEPQNIEDEAKEQIQSLLHEMVHAEHVEGEDLQQEDGPTGEPQQEDDEFLMATDVDDRFETLEPEVSHEETEHSYHVEETVSQDCNQDMEEMMSEQENPDSSEPVVEDERLHHDTDDVTYQVYEEQAVYEPLENEGIEITEVTAPPEDNPVEDSQVIVEEVSIFPVEEQQEVPPETNRKTDDPEQKAKVKKKKPKLLNKFDKTIKAELDAAEKLRKRGKIEEAVNAFKELVRKYPQSPRARYGKAQCEDDLAEKRRSNEVLRGAIETYQEVASLPDVPADLLKLSLKRRSDRQQFLGHMRGSLLTLQRLVQLFPNDTSLKNDLGVGYLLIGDNDNAKKVYEEVLSVTPNDGFAKVHYGFILKAQNKIAESIPYLKEGIESGDPGTDDGRFYFHLGDAMQRVGNKEAYKWYELGHKRGHFASVWQRSLYNVNGLKAQPWWTPKETGYTELVKSLERNWKLIRDEGLAVMDKAKGLFLPEDENLREKGDWSQFTLWQQGRRNENACKGAPKTCTLLEKFPETTGCRRGQIKYSIMHPGTHVWPHTGPTNCRLRMHLGLVIPKEGCKIRCANETRTWEEGKVLIFDDSFEHEVWQDASSFRLIFIVDVWHPELTPQQRRSLPAI
CD4+ T cells expressing both IFN-γ and CD154 ([3]; HCC patients #1-5): expanded significantly | CD4+CD154+ and CD4+IFN-γ+ T cells [3, 4]: significant increases | percentage of CD8+ CTLs expressing CD137 and IFN-γ [3, 4]: significantly higher | percentages of responsive cells vs AFP sample or antigen control ([3]; HCC patients, FIGS. 1B and 1D, p<0.05): significantly greater | ASPH-specific T cell activation after Treg cell depletion ([3]; anti-CD25 microbeads prior to co-culture): enhanced | activation of both CD4+ T cells and CTLs ([3]; healthy donor HD #1, ASPH-pulsed DCs compared to AFP or no antigen): significant increases
